Molecular target: Ec Hfq WT (Escherichia coli, UniProt P0A6X3 1-102)
Experiment: fluorescence polarization

Ec Hfq WT, sequence (P0A6X3 whole entry): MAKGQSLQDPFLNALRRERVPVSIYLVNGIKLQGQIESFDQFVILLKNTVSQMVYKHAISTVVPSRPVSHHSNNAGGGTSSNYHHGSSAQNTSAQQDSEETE

B1: U6 (5'-fluorescein) (ssRNA)
RNA: UUUUUU
Kd: 3.3 nM

Source: publication PMC4174437
